According to paper PMC3742539, “ε Subunit of Bacillus subtilis F1-ATPase Relieves MgADP Inhibition” (PLoS ONE, 2013):

Molecular target: T1, γ^S3C subunit of BF1 (Bacillus subtilis, UniProt P37810 1-287, S3C)
T1 construct: F1-ATPase γ subunit, Bacillus subtilis, with γSer3 to Cys; Stood in the assay as a subunit of the α3β3γ^S3C complex, never isolated alone; source: E. coli BL21(DE3), co-expressed with α and His6-β, purified as part of the α3β3γ^S3C complex
Assay: cross-linking; disulfide cross-linking without ATP: α3β3γ^S3C and ε^133C mixed 1:10, excess ε removed by ultrafiltration (100-kDa cutoff), 50 µM CuCl2, 1 h, 25 °C, 50 mM Tris-H2SO4 pH 7.5, 50 mM K2SO4; non-reducing SDS-PAGE
Conditions: both partners purified

B1: mutant BF1 ε subunit (133C, a Cys introduced at the C-terminus) (natural protein, Bacillus subtilis, UniProt P37812 1-132, looked up)
chain: MKTVKVNIVTPDGPVYDADIEMVSVRAESGDLGILPGHIPTVAPLKIGAVRLKKDGQTEMVAVSGGFVEVRPDHVTILAQAAETAEGIDKERAEAARQRAQERLNSQSDDTDIRRAELALQRALNRLDVAGKC
B1: binds.
